Measured values: US20240018502A1
Positions count from the first letter of the chain named. Numbers in names are those of the source. One block for each binder: values may come before it.

Biological target: plasma purified human complement protein C3 (human) (UniProt P01024)
Experiment: cell-based or functional assay

Chain of plasma purified human complement protein C3 (human) (P01024 23-667, chain 1 of 2): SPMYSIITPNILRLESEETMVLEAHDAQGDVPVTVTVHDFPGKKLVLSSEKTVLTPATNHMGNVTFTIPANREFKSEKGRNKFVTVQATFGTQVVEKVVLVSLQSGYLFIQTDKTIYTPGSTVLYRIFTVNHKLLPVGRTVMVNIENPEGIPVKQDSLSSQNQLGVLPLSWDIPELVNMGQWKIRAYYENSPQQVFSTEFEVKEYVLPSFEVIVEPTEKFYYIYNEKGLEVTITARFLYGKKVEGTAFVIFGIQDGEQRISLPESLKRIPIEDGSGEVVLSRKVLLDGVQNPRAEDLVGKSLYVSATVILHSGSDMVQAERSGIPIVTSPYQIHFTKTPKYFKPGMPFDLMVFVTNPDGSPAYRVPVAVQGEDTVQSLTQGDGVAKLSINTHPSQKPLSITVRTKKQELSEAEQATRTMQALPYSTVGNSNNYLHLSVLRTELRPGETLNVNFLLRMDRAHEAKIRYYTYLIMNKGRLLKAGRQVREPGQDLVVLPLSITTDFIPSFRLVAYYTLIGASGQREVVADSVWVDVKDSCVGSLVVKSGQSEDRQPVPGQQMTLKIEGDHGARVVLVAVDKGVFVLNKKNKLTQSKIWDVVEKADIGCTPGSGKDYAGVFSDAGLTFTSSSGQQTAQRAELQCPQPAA
Chain of plasma purified human complement protein C3 (human) (P01024 672-1663, chain 2 of 2): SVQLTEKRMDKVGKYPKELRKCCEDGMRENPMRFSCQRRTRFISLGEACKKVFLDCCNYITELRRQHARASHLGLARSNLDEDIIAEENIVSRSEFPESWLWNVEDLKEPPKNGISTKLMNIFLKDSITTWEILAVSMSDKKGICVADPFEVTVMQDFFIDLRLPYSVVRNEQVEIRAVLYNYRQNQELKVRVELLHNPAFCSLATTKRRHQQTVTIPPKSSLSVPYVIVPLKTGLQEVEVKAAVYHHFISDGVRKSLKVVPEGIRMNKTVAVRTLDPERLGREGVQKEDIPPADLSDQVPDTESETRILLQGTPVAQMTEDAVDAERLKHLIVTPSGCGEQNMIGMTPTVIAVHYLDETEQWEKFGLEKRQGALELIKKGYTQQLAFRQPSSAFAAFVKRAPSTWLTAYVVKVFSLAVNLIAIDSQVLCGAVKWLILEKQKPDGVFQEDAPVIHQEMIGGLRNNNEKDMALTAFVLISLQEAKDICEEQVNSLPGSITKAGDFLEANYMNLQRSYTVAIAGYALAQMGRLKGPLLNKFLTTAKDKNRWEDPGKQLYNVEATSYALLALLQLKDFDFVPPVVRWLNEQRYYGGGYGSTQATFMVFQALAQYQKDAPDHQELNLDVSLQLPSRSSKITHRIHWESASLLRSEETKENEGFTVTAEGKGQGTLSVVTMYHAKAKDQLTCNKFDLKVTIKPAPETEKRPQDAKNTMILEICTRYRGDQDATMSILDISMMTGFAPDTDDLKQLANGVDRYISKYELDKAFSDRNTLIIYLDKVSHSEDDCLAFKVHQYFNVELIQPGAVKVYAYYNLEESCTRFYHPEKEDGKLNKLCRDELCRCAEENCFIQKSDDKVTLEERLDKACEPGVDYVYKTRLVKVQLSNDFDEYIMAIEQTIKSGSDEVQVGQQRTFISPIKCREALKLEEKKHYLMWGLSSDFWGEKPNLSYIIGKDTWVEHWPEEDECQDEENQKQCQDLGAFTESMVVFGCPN

EC50 hC3 cleavage: 4.47 nM
B1: MTSP-1 protease domain Q38H/I41S/D60bT/F60eG/Y60gW/D96V/F97N/T98G/F99L/C122S/G151N/Q175L/Q192D (enzyme)
chain: VVGGTDADEGEWPWQVSLHALGHGHSCGASLISPNWLVSAAHCYIDTRGGRWSDPTQWTAFLGLHDQSQRSAPGVQERRLKRIISHPFFNVNGLDYDIALLELEKPAEYSSMVRPISLPDASHVFPAGKAIWVTGWGHTQYGGTNALILQKGEIRVINQTTCENLLPQLITPRMMCVGFLSGGVDSCDGDSGGPLSSVEADGRIFQAGVVSWGDGCAQRNKPGVYTRLPLFRDWIKENTGV

EC50 hC3 cleavage: 9.56 nM
B2: MTSP-1 protease domain Q38H/I41S/D60bT/F60eG/D96Y/F97N/T98G/F99L/C122S/G151N/Q175L/Q192D (enzyme)
chain: B1 chain with W52Y, V91Y

EC50 hC3 cleavage: 45.9 nM
B3: MTSP-1 protease domain Q38E/I41S/D60bV/F60eK/Y60gW/D96P/F97N/T98G/F99L/C122S/G151N/Q175L/Q192D (enzyme)
chain: B1 chain with H23E, T47V, G50K, V91P

EC50 hC3 cleavage: 62.7 nM
B4: MTSP-1 protease domain Q38K/I41G/F60eG/Y60gW/D96P/F97N/T98G/F99L/C122S/G151N/Q175L/Q192D (enzyme)
chain: B1 chain with H23K, S26G, T47D, V91P

EC50 hC3 cleavage: 22.3 nM
B5: MTSP-1 protease domain Q38E/I41S/D60bW/F60eG/D96M/F97N/T98G/F99L/C122S/G151N/Q175L/Q192D (enzyme)
chain: B1 chain with H23E, T47W, W52Y, V91M

EC50 hC3 cleavage: 34.2 nM
B6: MTSP-1 protease domain Q38H/I41S/D60bT/F60eG/D96P/F97N/T98G/F99L/C122S/G151Q/Q175L/Q192D (enzyme)
chain: B1 chain with W52Y, V91P, N145Q

EC50 hC3 cleavage: 27.4 nM
B7: MTSP-1 protease domain Q38K/I41G/D60bT/F60eG/Y60gW/D96P/F97N/T98G/F99L/C122S/G151N/Q175L/Q192D (enzyme)
chain: B1 chain with H23K, S26G, V91P

EC50 hC3 cleavage: 5.06 nM
B8: MTSP-1 protease domain Q38Y/I41A/D60bT/F60eG/Y60gW/D96V/F97N/T98G/F99L/C122S/G151H/Q175L/Q192D (enzyme)
chain: B1 chain with H23Y, S26A, N145H

EC50 hC3 cleavage: 227 nM
B9: MTSP-1 protease domain Q38Y/I41E/D60bS/F60eV/Y60gF/D96W/F97N/T98G/F99L/C122S/G151N/Q175L/Q192D (enzyme)
chain: B1 chain with H23Y, S26E, T47S, G50V, W52F, V91W

EC50 hC3 cleavage: 21.6 nM
B10: MTSP-1 protease domain Q38M/I41S/F60eH/Y60gW/D96Y/F97N/T98G/F99L/C122S/G151N/Q175L/Q192D (enzyme)
chain: B1 chain with H23M, T47D, G50H, V91Y

EC50 hC3 cleavage: 12.5 nM
B11: MTSP-1 protease domain Q38K/I41G/D60bT/F60eG/Y60gW/D96L/F97N/T98G/F99L/C122S/G151N/Q175L/Q192D (enzyme)
chain: B1 chain with H23K, S26G, V91L

EC50 hC3 cleavage: 27.4 nM
B12: MTSP-1 protease domain Q38V/I41G/F60eG/Y60gW/D96P/F97N/T98G/F99L/C122S/G151N/Q175L/Q192D (enzyme)
chain: B1 chain with H23V, S26G, T47D, V91P

EC50 of hC3 cleavage: 14.4 nM
B13: MTSP-1 Q38H/I41A/D60bT/F60eK/Y60gW/F97T/ins97aE/T98G/F99L/C122S/G151N/Q175L/Q192D (enzyme)
chain: VVGGTDADEGEWPWQVSLHALGHGHACGASLISPNWLVSAAHCYIDTRGKRWSDPTQWTAFLGLHDQSQRSAPGVQERRLKRIISHPFFNDTEGLDYDIALLELEKPAEYSSMVRPISLPDASHVFPAGKAIWVTGWGHTQYGGTNALILQKGEIRVINQTTCENLLPQLITPRMMCVGFLSGGVDSCDGDSGGPLSSVEADGRIFQAGVVSWGDGCAQRNKPGVYTRLPLFRDWIKENTGV

EC50 hC3 cleavage: 21.3 nM
B14: MTSP-1 protease domain Q38H/I41A/D60bV/F60eR/Y60gW/D96F/F97E/ins97aS/T98G/F99M/C122S/G151N/Q175L/Q192G (enzyme)
chain: B13 chain with T47V, K50R, D91F, T92E, E93S, L95M, D189G

EC50 of hC3 cleavage: 6.68 nM
B15: MTSP-1 Q38H/I41S/D60bT/F60eS/Y60gW/F97D/ins97aV/T98P/F99L/C122S/G151H/Q175L/Q192E (enzyme)
chain: B13 chain with A26S, K50S, T92D, E93V, G94P, N146H, D189E

EC50 hC3 cleavage: 16.9 nM
B16: MTSP-1 protease domain Q38H/I41A/D60bV/F60eR/Y60gW/D96F/F97E/ins97aT/T98G/F99M/C122S/G151N/Q175L/Q192G (enzyme)
chain: B13 chain with T47V, K50R, D91F, T92E, E93T, L95M, D189G

EC50 hC3 cleavage: 13.1 nM
B17: MTSP-1 protease domain Q38H/I41A/D60bV/F60eR/Y60gW/D96F/F97D/ins97aE/T98G/F99M/C122S/G151N/Q175L/Q192R (enzyme)
chain: B13 chain with T47V, K50R, D91F, T92D, L95M, D189R
